Source: US7976845

Key:
[1] = molecular target: recombinant gB-CMV polyepitope protein (Human cytomegalovirus (AD169)); experiment: direct ELISA; plate coated with concentrated recombinant protein diluted 1:50; 2F12 at 1:8000; HRP anti-mouse Ig, TMB
[2] = molecular target: recombinant gB-CMV polyepitope protein (Human cytomegalovirus (AD169)); experiment: direct ELISA; plate coated with concentrated recombinant protein diluted 1:100; 2F12 at 1:8000; HRP anti-mouse Ig, TMB
[3] = molecular target: recombinant gB-CMV polyepitope protein (Human cytomegalovirus (AD169)); experiment: direct ELISA; plate coated with concentrated recombinant protein diluted 1:200; 2F12 at 1:8000; HRP anti-mouse Ig, TMB
[4] = molecular target: recombinant gB-CMV polyepitope protein (Human cytomegalovirus (AD169)); experiment: direct ELISA; plate coated with concentrated recombinant protein diluted 1:400; 2F12 at 1:8000; HRP anti-mouse Ig, TMB
[5] = molecular target: recombinant gB-CMV polyepitope protein (Human cytomegalovirus (AD169)); experiment: direct ELISA; plate coated with concentrated recombinant protein diluted 1:800; 2F12 at 1:8000; HRP anti-mouse Ig, TMB
[6] = molecular target: recombinant gB-CMV polyepitope protein (Human cytomegalovirus (AD169)); experiment: direct ELISA; plate coated with concentrated recombinant protein diluted 1:1600; 2F12 at 1:8000; HRP anti-mouse Ig, TMB
[7] = molecular target: recombinant gB-CMV polyepitope protein (Human cytomegalovirus (AD169)); experiment: direct ELISA; plate coated with concentrated recombinant protein diluted 1:3200; 2F12 at 1:8000; HRP anti-mouse Ig, TMB
[8] = molecular target: recombinant gB-CMV polyepitope protein (Human cytomegalovirus (AD169)); experiment: direct ELISA; plate coated with concentrated recombinant protein diluted 1:6400; 2F12 at 1:8000; HRP anti-mouse Ig, TMB
[9] = molecular target: recombinant gB-CMV polyepitope protein (Human cytomegalovirus (AD169)); experiment: direct ELISA; plate coated with concentrated recombinant protein diluted 1:12800; 2F12 at 1:8000; HRP anti-mouse Ig, TMB
[10] = molecular target: recombinant gB-CMV polyepitope protein (Human cytomegalovirus (AD169)); experiment: direct ELISA; plate coated with concentrated recombinant protein diluted 1:25600; 2F12 at 1:8000; HRP anti-mouse Ig, TMB
[11] = molecular target: recombinant gB-CMV polyepitope protein (Human cytomegalovirus (AD169)); experiment: direct ELISA; plate coated with concentrated recombinant protein diluted 1:51200; 2F12 at 1:8000; HRP anti-mouse Ig, TMB
[12] = molecular target: recombinant gB-CMV polyepitope protein (Human cytomegalovirus (AD169)); experiment: direct ELISA; plate coated with concentrated recombinant protein diluted 1:102400; 2F12 at 1:8000; HRP anti-mouse Ig, TMB

In the case of “anti-gB monoclonal antibody 2F12 (Abcam, UK)”, the OD [1] is reported as 0.69 OD, the OD [2] is reported as 0.548 OD and the OD [3] is reported as 0.408 OD. It also gave an OD [4] of 0.59 OD, an OD [5] of 0.486 OD and an OD [6] of 0.379 OD. For the same substance, the OD [7] was 0.4 OD, the OD [8] was 0.317 OD and the OD [9] was 0.249 OD. For the same substance, the OD [10] was 0.277 OD, the OD [11] was 0.19 OD and the OD [12] was 0.144 OD.
